In the nanobody polyreactivity screen of Harvey et al. (2022):

Assay: yeast display, Sf9 membrane polyspecificity reagent, FACS + sequencing; frameworks hold sequencing errors
In short: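 Synthetic nanobody libraries on Saccharomyces cerevisiae BJ5465 were galactose-induced for 36–48 hours, stained 1 hour at 4 °C with 10% biotinylated, detergent-solubilized Sf9 membrane reagent and enriched on streptavidin microbeads. FACS then separated cells into low and high (top ~1%) gates by anti-HA (expression) and streptavidin (reagent binding) fluorescence. Genes were colony-PCR amplified, MiSeq 2 × 250 sequenced and CDR-length filtered. A clone's polyreactivity label is that of its gate of origin.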
With “QVQLVYSGGGLVQAGGSLRLSCAASGISFSQYAMGWYRQAPGKERELVASISSGGRTNYADSVKGRFTISRDNAKNTVYLQLNSLTPEDTAVYYCAAEQWGWYWYDYWGQGTQVTVSS” the “polyreactivity (PSR sort gate)” value was “high polyreactivity”.
For “QVQMQESGGGLVLAGGSLRLSCASSGSISAQAYMGWDRQAPGKEREHVAGINYGDNTNYADSVKGRFTISRDNEHRVSADEQPETGRYRGVLLRGFLELFYYYIYWGQGTQVTVSS”, the “polyreactivity (PSR sort gate)” value was “high polyreactivity”.
In the case of “QVQMQESGGGLVQAGGSLRLICAASGTILYSLGMGWYRQATGKRREFVASITWGTTTNYAERVKGRFTISSDNAKNTVYPKIISLKPEVTAVYYCASPPFGDSSFHYWGQGTQVTVSS”, the “polyreactivity (PSR sort gate)” value is reported as “low polyreactivity”.
In the case of “QVQMQESRGGLVQAGGSLRLSCAASGTITTLPAMGWNRQAPGKEREFVAGIDTGAITNYADSVKGRFTISRDNAKNTVYLQKNSLKPEVTAVYYCAVFPAAYDYYERYYTYWGQGTQVTVMS”, the “polyreactivity (PSR sort gate)” value is reported as “low polyreactivity”.
In the case of “QVQPQESGGGLVQAGGSLRLSCAASGTIFAFQTMGWYRQAPGKERELVASITYGSSTNYADSVKGRFTISRDNAKNTVYLQMNSLKPEDTAVYYCAKSAQRYSYRYYYWGQGTQVTVSS”, the “polyreactivity (PSR sort gate)” value is reported as “high polyreactivity”.
For “QVQPQESGGGPVQACGSLRLSCAASGNILDADILGWYRLVPAKERELVASITDGGSTNYAESVKGRFTISRDNAKNTVYLQMNSLKPEDTAVYYCARRHRVFPSRIGHDYWGQGSQVTVSS”, the “polyreactivity (PSR sort gate)” value was “low polyreactivity”.
In the case of “QVQPVESRGGLVQAGGSLRLSCAASGRIFARNAQGWYRTAPGKERELVAAITYSSGRTYYADSVKGRFTISRDNAKNTVYLQMNSLKPEHTAVYYCADGKGYIGVSVSGGYGYWGPGTQVTVSS”, the “polyreactivity (PSR sort gate)” value is reported as “high polyreactivity”.
For “QVQQQASGGGLVQAGGSLRLSCATSGSIFYADTMGWYRQAPGKEREFVITYYADSVKGLSRDNAKNTVYLQMNSLKPEDSAVYYCATDGVNPFYAYDYWGQGTQVTVSS”, the “polyreactivity (PSR sort gate)” value was “low polyreactivity”.
With “QVQQQESGGGLVQACGSLPLSCAASVSIFTQATMGWYRQPPGKERELVAAINFGSSTYYADSVKGRFTISRDNAKSTVYLQMNSLKPEDTSVYYCAVRALWYDLHDYWGQGTQVTVSS” the “polyreactivity (PSR sort gate)” value was “high polyreactivity”.
In the case of “QVQQQESGGGLVQAGGSLRLSCAASGTIFQLTVMGRYRQAPGKERELVASIDYGGNTNYADSVKGRFTISRDNAKNTVYLQMHSLKPEDTAVYYCAASSDSWTTHPYWGQGTQVTVSS”, the “polyreactivity (PSR sort gate)” value is reported as “low polyreactivity”.
In the case of “QVQQQESGGGLVQEGGSLRLSCAASGYIFDYYYMGWYRQAPGKEREFVATISEGSTTNYADSVKGRFTTSRDNSKNTVYLQMNSLKPEDTAVYYCATDTVYGNDYWGQGTHVTVSS”, the “polyreactivity (PSR sort gate)” value is reported as “low polyreactivity”.
In the case of “QVQQRESGGGLVQAGGSLSLSCAASGTIFYSRYMGWYRQAPGKEREFVASISSGGNTNYADSVKGRCTISRDNAKNTVYLQMNSLKPEVTAVYYCAVNTGLITTFPFWGQATQVTVSS”, the “polyreactivity (PSR sort gate)” value is reported as “high polyreactivity”.
For “QVQQVESGGGLVQAGGSLRLSCAASGFIFFGYAMGWYRQARGKERELVAAITSGGSTYYADSVKGRFTISRDNAKNTVYLQMNSLKPEDTAVYYCAADNSGWWGTGYNYWGQGTQVTVSS”, the “polyreactivity (PSR sort gate)” value was “high polyreactivity”.
For “QVQQVESGGGLVQAGVSLRLSCPASGLTFYTNPRGWYRQAPGKERELVAAIRRRGGRTYYADSVKGRFTISRDNATNSVYLQMNSLKPEDTAVSYCAADYSTLYNYDYWGQGTQVTVSS”, the “polyreactivity (PSR sort gate)” value was “low polyreactivity”.
For “QVQREESGGGLVQAGGSLRLSCAASGSILYYNAMGWYRQAPGKEREFVAGISSSGGSTYYADSVKGRFTISRDNAKNTVYLQMKSLQPEENAVYYCAKRTYWRRGWCFDFWGQGTQVTVSS”, the “polyreactivity (PSR sort gate)” value was “high polyreactivity”.
With “QVQRGESGGGLVQAGGSLRLSCAASAIIIYYYAMGCYRQAPGNERELVAGISYSGGSTYADSVKGRFTISRDNAKLTVYLQMNSLKPEDTAVYYCAAEYEYGGHWYDYWGQGTQETVSS” the “polyreactivity (PSR sort gate)” value was “low polyreactivity”.
In the case of “QVQRVDSGGGLRQAGGSLRLTCSASGSIFGLYAMGWYRQATGKERELVASISKSGGSTYYADCVKGRFTISRDNAKNTVYLQMNRLKPEDTAVYYCAARQYPRAGFDYWGQGTQVPVSS”, the “polyreactivity (PSR sort gate)” value is reported as “high polyreactivity”.
In the case of “QVQRVDSGGGLVQAGGSLRLTCAASGFTFSQYVMGWYRQAPGKARELVAAISYRGGSTYYADSVKGRFTISRDNAKNTVYVQMNSLKPEDTAVYYCAAVAYSWHNRYDYWGQGTQVTVSS”, the “polyreactivity (PSR sort gate)” value is reported as “high polyreactivity”.
